This is an account of results in publication PMC9519379 (Cell Reports Medicine, 2022).

Several values for one entry are separate records, joined by “and”; a condition that tells them apart may be missing. Equal entries are not always repeated.

The series deals with the molecule itself.

B1: H84T-banana lectin (H84T-BanLec) (designed binder)
chain: MNGAIKVGAWGGNGGSAFDMGPAYRIISVKIFSGDVVDAVDVTFTYYGKTETRHFGGSGGTPHEIVLQEGEYLVGMKGEFGNYTGVVVVGKLGFSTNKKSYGPFGNTGGTPFSLPIAAGKISGFFGRGGDFIDAIGVYLEP
Broadly, the stoichiometry N is a count of units in the complex or per binding partner. Turning to B1, the “stoichiometry N” value is 2 and 4.
